# Numbering of substitutions follows the chain as printed.
# B1: G32A12 (antibody, V domains shown)
# VH: QVQLVQSGAEVKKPGASVKVSCKASGYTFTSYYMHWVRQAPGQGLEWMGIINPSGGSTSYAQKFQGRVTMTRDTSTSTVYMELSSLRSEDTAVYYCARDPTMTTVTTLDDYYYYYGMDVWGQGTTVTVSS
# VL: not shown
# B2: C41C3 (antibody, V domains shown)
# VH: QVQLQESGPGLVKPSETLSLTCTVSGGSISSYYWSWIRQPPGKGLEWIGYIYYSGSTNYNPSLKSRVTISVDTSKNQFSLKLSSVTAADTAVYYCARAAEYYDFWSGYYRNWFDPWGQGTLVTVSS
# VL: not shown
# B3: C81H2 (antibody, V domains shown)
# VH: QVQLVQSGSELKKPGASVKVSCKASGYTFTSYAMNWVRQAPGQGLEWMGWINTNTGNPTYAQDFTGRFVFSLDTSVSTAYLQISSLKAEDTAMYYCARGSMITFGGILEPVLQFDYWGQGTLVTVSS
# VL: not shown
# B4: C83A8 (antibody, V domains shown)
# VH: QVQLVQSGAEVKKPGSSVKISCKASGGTFSSNAISWVRQAPGQGLEWMGGIIPILTTTNYAERLQGRVTITADESTSTAYMELSSLRSEDTAVYYCASQGRKSCITVFGVVDLLCYSNGMDVWGQGTTVTVSS
# VL: QSALTQPASVSGSPGQSITISCTGTSSDVGGYKYVSWYQHHPGKAPKLMIYDVSNRPSGVSNRFSGSKSGNTASLTISGLQAEDEAEYYCSSFTTSSTLVVFGGGTKLTVL
# B5: C81B2 (antibody, V domains shown)
# VH: QVQLVQSGAEVKKPGASVKVSCKVSGYTLIELSMHWVRQAPGKGLEWMGGFDPEDGETIYAQKFQGRVTMTEDTSTDTAYMELSSLRSEDTAVYYCATGPSIAVRGWFDPWGQGTLVTVSS
# VL: QSVLTQPPSVSAAPGQKVTISCSGSSSNIGNNYVSWYQQLPGTAPKLLIYENNKRPSGIPDRFSGSKSGTSATLGITGLQTGDEADYYCGTWDSSLSAGGVFGGGTKLTVL
# B6: C81G10 (antibody, V domains shown)
# VH: B5 VH with I30T, M34I, G99T, P100T, S101V, I102L, V104A, R105A, G106S
# VL: QSALTQPASVSGSPGQSITISCTGTNSDVGSYNLVSWYQQHPGKAPKLMIYEGSKRPSGVSNRFSGSKSGNTASLTISGLQAEDEADYYCCSYAGSGTVVFGGGTKLTVL
# B7: C81C6 (antibody, V domains shown)
# VH: B5 VH with I30T, M70V, G99S, S101A, V104A, R105T, F108L
# VL: QSALTQPASVSGSPGQSITISCTGTSSDVGSYNLVSWYQQHPGKAPKLMIYEGNKRPSGVSNRFSGSKSGNTASLTISGLQAEDEADYYCCSYAGSSTHWVFGGGTKLTVL
# B8: C81D7 (antibody, V domains shown)
# VH: not shown
# VL: SYELTQPPSVSVAPGKTARITCGGNNIGSKSVHWYQQKPGQAPVLVVYDDSDRPSGIPERFSGSNSGNTATLTISRVEAGDEADYYCQVWDSSSDSWVFGGGTKLTVL
# B9: C12D8 (antibody, V domains shown)
# VH: EVQLVESGGGLVQPGGSLRLSCAASGFTFSSYWMSWVRQAPGKGLEWVANIKQDGSEKYYVDSVKGRFTISRDNAKNSLYLQMNSLRAEDTAVYYCARDDGLREPFDYWGQGTLVTVSS
# VL: not shown
# B10: C81E3 (antibody, V domains shown)
# VH: QVQLVESGGGVVQPGRSLRLSCAASGFTFSSYAMHWVRQAPGKGLEWVAVISYDGSNKYYADSVKGRFTISRDNSKNTLYLQMNSLRAEDTAVYYCARVSSMDVLRYFDPLDVWGNGTTVTVSS
# VL: SYELTQPPSVSVSPGQTARITCSGDALPKQYAYWYQQKPGQAPVLVIYKDSERPSGIPERFSGSSSGTTVTLTISGVQAEDEADYYCQSADSSGTYHVVFGGGTKLTVL
# Biological target: SARS-CoV-2 S ectodomain trimer, prefusion-stabilized, 2P variant (Wrapp et al., 2020) (SARS-CoV-2, Wuhan-Hu-1, UniProt P0DTC2, stabilised)
row,Binder,binding result
1,B1,binds
2,B2,binds
3,B3,binds
4,B4,binds
5,B5,binds
6,B6,binds
7,B7,binds
8,B8,binds
9,B9,binds
10,B10,binds

# Reference: paper PMC8299219 (Cell, 2021)
